Measurements from publication PMC7294595 (2020).
[ ]: non-standard residue; d: D form. CPP12 = cyclic cell-penetrating peptide fused at the N-terminus; pY = N[C@@H](Cc1ccc(OP(=O)(O)O)cc1)C(=O)O; βAla = NCCC(=O)O

Legend:
[1] = molecular target: T1, ac-pTyr (gp130-derived phosphopeptide) (Homo sapiens); assay: competition fluorescence polarization
T1 chain: Ac-G[pY]LPQTV-NH2

CPP12-pTyr = molecular target: T2, CPP12-pTyr (Homo sapiens, not fully specified); assay: competition fluorescence polarization
T2 chain: {CPP12-βAla-βAla}-G[pY]LPQTV-NH2

IC50 [1]: 610 nM
IC50 (CPP12-pTyr): 410 nM
B1: STAT3 127-711 (protein)
chain: GQANHPTAAVVTEKQQMLEQHLQDVRKRVQDLEQKMKVVENLQDDFDFNYKTLKSQGDMQDLNGNNQSVTRQKMQQLEQMLTALDQMRRSIVSELAGLLSAMEYVQKTLTDEELADWKRRQQIACIGGPPNICLDRLENWITSLAESQLQTRQQIKKLEELQQKVSYKGDPIVQHRPMLEERIVELFRNLMKSAFVVERQPCMPMHPDRPLVIKTGVQFTTKVRLLVKFPELNYQLKIKVCIDKDSGDVAALRGSRKFNILGTNTKVMNMEESNNGSLSAEFKHLTLREQRCGNGGRANCDASLIVTEELHLITFETEVYHQGLKIDLETHSLPVVVISNICQMPNAWASILWYNMLTNNPKNVNFFTKPPIGTWDQVAEVLSWQFSSTTKRGLSIEQLTTLAEKLLGPGVNYSGCQITWAKFCKENMAGKGFSFWVWLDNIIDLVKKYILALWNEGYIMGFISKERERAILSTKPPGTFLLRFSESSKEGGVTFTWVEKDISGKTQIQSVEPYTKQQLNNMSFAEIIMGYKIMDATNILVSPLVYLYPDIPKEEAFGKYCRPESQEHPEADPGSAAPYLKTKFI
